The values that follow are results of earlier work, collected in publication PMC3221918.

This series deals with IL-15RαSu soluble ECD (Homo sapiens) (UniProt Q13261).
Chain of UniProt Q13261 (Q13261 31-95): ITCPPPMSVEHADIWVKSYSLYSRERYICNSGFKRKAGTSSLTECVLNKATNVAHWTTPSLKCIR

On to IL-15 (from UniProt P40933), for which the Kd was 100 pM.
